T1: SNTG2, Q9NY99
T1 sequence (Q9NY99 68-166, limits assumed, looked up): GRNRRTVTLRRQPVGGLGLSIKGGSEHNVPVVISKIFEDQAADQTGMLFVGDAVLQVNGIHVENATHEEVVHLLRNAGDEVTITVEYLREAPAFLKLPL

T2: SYNJ2BP, P57105
T2 sequence (P57105 8-110, limits assumed, looked up): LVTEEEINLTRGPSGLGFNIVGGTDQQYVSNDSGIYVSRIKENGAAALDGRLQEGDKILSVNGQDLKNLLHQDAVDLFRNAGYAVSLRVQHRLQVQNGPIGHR

T3: DFNB31_1, Q9P202
T3 sequence (Q9P202 135-233, limits assumed, looked up): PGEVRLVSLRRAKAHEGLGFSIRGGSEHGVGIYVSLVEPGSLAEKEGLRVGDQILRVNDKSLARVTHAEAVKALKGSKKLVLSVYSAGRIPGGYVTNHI

T4: TJP3_3, O95049
T4 sequence (O95049 375-456, limits assumed, looked up): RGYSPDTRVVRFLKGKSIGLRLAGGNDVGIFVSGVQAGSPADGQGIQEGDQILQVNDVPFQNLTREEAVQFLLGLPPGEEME

T5: SHANK1, Q9Y566
T5 sequence (Q9Y566 658-767, limits assumed, looked up): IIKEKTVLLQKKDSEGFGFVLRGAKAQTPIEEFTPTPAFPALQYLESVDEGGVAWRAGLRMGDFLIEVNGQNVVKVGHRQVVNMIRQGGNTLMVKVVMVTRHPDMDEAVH

T6: LRRC7, Q96NW7
T6 sequence (Q96NW7 1440-1537, limits assumed, looked up): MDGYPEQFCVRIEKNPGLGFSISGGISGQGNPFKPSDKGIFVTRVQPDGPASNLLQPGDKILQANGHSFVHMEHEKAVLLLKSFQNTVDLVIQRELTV

T7: MPDZ_12, O75970
T7 sequence (O75970 1857-1958, limits assumed, looked up): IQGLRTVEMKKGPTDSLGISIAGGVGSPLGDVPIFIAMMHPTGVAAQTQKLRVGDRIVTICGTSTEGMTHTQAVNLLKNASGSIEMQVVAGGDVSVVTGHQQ

T8: LIN7C, Q9NUP9
T8 sequence (Q9NUP9 88-185, limits assumed, looked up): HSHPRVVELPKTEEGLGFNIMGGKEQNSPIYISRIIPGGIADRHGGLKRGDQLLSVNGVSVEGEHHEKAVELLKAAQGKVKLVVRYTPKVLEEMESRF

T9: RHPN1, Q8TCX5
T9 sequence (Q8TCX5 508-602, limits assumed, looked up): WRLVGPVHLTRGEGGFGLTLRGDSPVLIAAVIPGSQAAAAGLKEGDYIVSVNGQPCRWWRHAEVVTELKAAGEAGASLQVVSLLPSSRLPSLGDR


Each binder was assayed against T1, SNTG2, Q9NY99 (assay: holdup assay). Details: plain residues with an end cap or a label only (N-terminal biotin on a linker: ado-ado).
Set-up: key: below the threshold = too weak to quantify, mostly under pKd 3.1 to 4

pKd	Binder
below the threshold	RFQQRMQTHV [KIRREL1, Q96J84]
3.73	REEPDHSTEV [CCRL2, O00421]

These binders were tested against FRMPD3, Q5JV73 (assay: holdup assay). Details: plain residues with an end cap or a label only (N-terminal biotin on a linker: ado-ado).
Set-up: key: below the threshold = too weak to quantify, mostly under pKd 3.1 to 4

Sequence of FRMPD3, Q5JV73 (Q5JV73 12-100): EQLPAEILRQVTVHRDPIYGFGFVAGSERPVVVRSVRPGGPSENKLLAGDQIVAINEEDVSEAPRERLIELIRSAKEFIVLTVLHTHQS

pKd	Binder
below the threshold	RFQQRMQTHV [KIRREL1, Q96J84]
3.6	REEPDHSTEV [CCRL2, O00421]

Each binder was assayed against DLG4_2, P78352 (assay: holdup assay). Details: plain residues with an end cap or a label only (N-terminal biotin on a linker: ado-ado).
Set-up: key: below the threshold = too weak to quantify, mostly under pKd 3.1 to 4

Sequence of DLG4_2, P78352 (P78352 155-259): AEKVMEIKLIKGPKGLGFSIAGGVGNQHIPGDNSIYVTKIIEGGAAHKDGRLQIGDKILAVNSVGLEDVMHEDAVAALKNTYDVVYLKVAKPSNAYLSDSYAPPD

pKd	Binder
4.64	RFQQRMQTHV [KIRREL1, Q96J84]
4.66	REEPDHSTEV [CCRL2, O00421]

Each binder was assayed against MAGI1_1, Q96QZ7 (assay: holdup assay). Details: plain residues with an end cap or a label only (N-terminal biotin on a linker: ado-ado).
Set-up: key: below the threshold = too weak to quantify, mostly under pKd 3.1 to 4

Sequence of MAGI1_1, Q96QZ7 (Q96QZ7 1-106): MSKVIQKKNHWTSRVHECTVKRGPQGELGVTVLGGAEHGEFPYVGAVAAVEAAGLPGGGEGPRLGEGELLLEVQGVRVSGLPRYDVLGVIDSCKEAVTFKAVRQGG

pKd	Binder
below the threshold	RFQQRMQTHV [KIRREL1, Q96J84]
below the threshold	REEPDHSTEV [CCRL2, O00421]

The binders below were run against FRMPD4, Q14CM0 (assay: holdup assay). Details: plain residues with an end cap or a label only (N-terminal biotin on a linker: ado-ado).
Set-up: key: below the threshold = too weak to quantify, mostly under pKd 3.1 to 4

Sequence of FRMPD4, Q14CM0 (Q14CM0 67-160): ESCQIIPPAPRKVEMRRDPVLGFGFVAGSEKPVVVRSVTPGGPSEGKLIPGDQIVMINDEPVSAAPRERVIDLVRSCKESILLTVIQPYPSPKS

pKd	Binder
below the threshold	RFQQRMQTHV [KIRREL1, Q96J84]
3.47	REEPDHSTEV [CCRL2, O00421]

What follows are binders tested against MAGI3_2, Q5TCQ9 (assay: holdup assay). Details: plain residues with an end cap or a label only (N-terminal biotin on a linker: ado-ado).
Set-up: key: below the threshold = too weak to quantify, mostly under pKd 3.1 to 4

Sequence of MAGI3_2, Q5TCQ9 (Q5TCQ9 398-503): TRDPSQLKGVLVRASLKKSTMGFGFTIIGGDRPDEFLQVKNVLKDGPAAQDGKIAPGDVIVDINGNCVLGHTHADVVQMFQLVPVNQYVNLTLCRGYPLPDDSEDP

pKd	Binder
5.37	RFQQRMQTHV [KIRREL1, Q96J84]
below the threshold	REEPDHSTEV [CCRL2, O00421]

These binders were tested against DLG1_2, Q12959 (assay: holdup assay). Details: plain residues with an end cap or a label only (N-terminal biotin on a linker: ado-ado).
Set-up: key: below the threshold = too weak to quantify, mostly under pKd 3.1 to 4

Sequence of DLG1_2, Q12959 (Q12959 314-412): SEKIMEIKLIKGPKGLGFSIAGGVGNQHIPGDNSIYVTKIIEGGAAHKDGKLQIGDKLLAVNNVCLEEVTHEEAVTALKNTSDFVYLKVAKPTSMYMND

pKd	Binder
4.74	RFQQRMQTHV [KIRREL1, Q96J84]
4.77	REEPDHSTEV [CCRL2, O00421]

Each binder was assayed against Inadl_8, Q8NI35 (assay: holdup assay). Details: plain residues with an end cap or a label only (N-terminal biotin on a linker: ado-ado).
Set-up: key: below the threshold = too weak to quantify, mostly under pKd 3.1 to 4

Sequence of Inadl_8, Q8NI35 (Q8NI35 1425-1530): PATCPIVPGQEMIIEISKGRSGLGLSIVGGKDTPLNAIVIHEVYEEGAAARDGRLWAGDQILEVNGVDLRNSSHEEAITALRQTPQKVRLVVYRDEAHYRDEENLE

pKd	Binder
3.72	RFQQRMQTHV [KIRREL1, Q96J84]
below the threshold	REEPDHSTEV [CCRL2, O00421]

What follows are binders tested against FRMPD2_1, Q68DX3 (assay: holdup assay). Details: plain residues with an end cap or a label only (N-terminal biotin on a linker: ado-ado).
Set-up: key: below the threshold = too weak to quantify, mostly under pKd 3.1 to 4

Sequence of FRMPD2_1, Q68DX3 (Q68DX3 770-861): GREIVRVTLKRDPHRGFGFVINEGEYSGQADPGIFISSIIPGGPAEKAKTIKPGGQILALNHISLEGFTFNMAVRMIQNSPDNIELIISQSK

pKd	Binder
below the threshold	RFQQRMQTHV [KIRREL1, Q96J84]
below the threshold	REEPDHSTEV [CCRL2, O00421]

What follows are binders tested against T2, SYNJ2BP, P57105 (assay: holdup assay). Details: plain residues with an end cap or a label only (N-terminal biotin on a linker: ado-ado).
Set-up: key: below the threshold = too weak to quantify, mostly under pKd 3.1 to 4

pKd	Binder
4.61	RFQQRMQTHV [KIRREL1, Q96J84]
5.14	REEPDHSTEV [CCRL2, O00421]

The binders below were run against SCRIB_2, Q14160 (assay: holdup assay). Details: plain residues with an end cap or a label only (N-terminal biotin on a linker: ado-ado).
Set-up: key: below the threshold = too weak to quantify, mostly under pKd 3.1 to 4

Sequence of SCRIB_2, Q14160 (Q14160 857-960): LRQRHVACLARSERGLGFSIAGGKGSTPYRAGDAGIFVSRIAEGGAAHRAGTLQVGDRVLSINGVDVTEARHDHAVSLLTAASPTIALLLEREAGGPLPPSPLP

pKd	Binder
4.1	RFQQRMQTHV [KIRREL1, Q96J84]
4.32	REEPDHSTEV [CCRL2, O00421]

The binders below were run against Inadl_10, Q8NI35 (assay: holdup assay). Details: plain residues with an end cap or a label only (N-terminal biotin on a linker: ado-ado).
Set-up: key: below the threshold = too weak to quantify, mostly under pKd 3.1 to 4

Sequence of Inadl_10, Q8NI35 (Q8NI35 1673-1763): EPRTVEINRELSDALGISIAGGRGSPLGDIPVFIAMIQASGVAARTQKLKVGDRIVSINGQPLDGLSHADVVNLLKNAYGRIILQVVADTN

pKd	Binder
below the threshold	RFQQRMQTHV [KIRREL1, Q96J84]
below the threshold	REEPDHSTEV [CCRL2, O00421]

Each binder was assayed against IL16_3, Q14005 (assay: holdup assay). Details: plain residues with an end cap or a label only (N-terminal biotin on a linker: ado-ado).
Set-up: key: below the threshold = too weak to quantify, mostly under pKd 3.1 to 4

Sequence of IL16_3, Q14005 (Q14005 1107-1207): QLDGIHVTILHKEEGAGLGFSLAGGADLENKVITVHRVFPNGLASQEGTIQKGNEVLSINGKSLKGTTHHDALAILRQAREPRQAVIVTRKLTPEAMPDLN

pKd	Binder
below the threshold	RFQQRMQTHV [KIRREL1, Q96J84]
below the threshold	REEPDHSTEV [CCRL2, O00421]

These binders were tested against T3, DFNB31_1, Q9P202 (assay: holdup assay). Details: plain residues with an end cap or a label only (N-terminal biotin on a linker: ado-ado).
Set-up: key: below the threshold = too weak to quantify, mostly under pKd 3.1 to 4

pKd	Binder
3.52	RFQQRMQTHV [KIRREL1, Q96J84]
4.03	REEPDHSTEV [CCRL2, O00421]

The binders below were run against NHERF4_1, Q86UT5-2 (assay: holdup assay). Details: plain residues with an end cap or a label only (N-terminal biotin on a linker: ado-ado).
Set-up: key: below the threshold = too weak to quantify, mostly under pKd 3.1 to 4

Sequence of NHERF4_1, Q86UT5-2 (Q86UT5 other isoform, or with tags, fused parts or gaps): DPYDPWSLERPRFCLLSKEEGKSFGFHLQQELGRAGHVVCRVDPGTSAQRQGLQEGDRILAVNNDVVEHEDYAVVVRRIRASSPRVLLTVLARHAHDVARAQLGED

pKd	Binder
3.7	RFQQRMQTHV [KIRREL1, Q96J84]
3.53	REEPDHSTEV [CCRL2, O00421]

The binders below were run against T4, TJP3_3, O95049 (assay: holdup assay). Details: plain residues with an end cap or a label only (N-terminal biotin on a linker: ado-ado).
Set-up: key: below the threshold = too weak to quantify, mostly under pKd 3.1 to 4

pKd	Binder
below the threshold	RFQQRMQTHV [KIRREL1, Q96J84]
below the threshold	REEPDHSTEV [CCRL2, O00421]

What follows are binders tested against PDZRN4_1, Q6ZMN7 (assay: holdup assay). Details: plain residues with an end cap or a label only (N-terminal biotin on a linker: ado-ado).
Set-up: key: below the threshold = too weak to quantify, mostly under pKd 3.1 to 4

Sequence of PDZRN4_1, Q6ZMN7 (Q6ZMN7 213-318): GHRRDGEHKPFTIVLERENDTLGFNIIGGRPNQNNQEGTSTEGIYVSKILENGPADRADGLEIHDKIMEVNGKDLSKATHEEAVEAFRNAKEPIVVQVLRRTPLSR

pKd	Binder
below the threshold	RFQQRMQTHV [KIRREL1, Q96J84]
4.17	REEPDHSTEV [CCRL2, O00421]

What follows are binders tested against Inadl_5, Q8NI35 (assay: holdup assay). Details: plain residues with an end cap or a label only (N-terminal biotin on a linker: ado-ado).
Set-up: key: below the threshold = too weak to quantify, mostly under pKd 3.1 to 4

Sequence of Inadl_5, Q8NI35 (Q8NI35 673-780): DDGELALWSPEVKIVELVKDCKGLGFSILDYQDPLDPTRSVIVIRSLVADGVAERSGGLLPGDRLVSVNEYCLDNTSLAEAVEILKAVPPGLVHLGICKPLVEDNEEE

pKd	Binder
3.6	RFQQRMQTHV [KIRREL1, Q96J84]
below the threshold	REEPDHSTEV [CCRL2, O00421]

The binders below were run against T5, SHANK1, Q9Y566 (assay: holdup assay). Details: plain residues with an end cap or a label only (N-terminal biotin on a linker: ado-ado).
Set-up: key: below the threshold = too weak to quantify, mostly under pKd 3.1 to 4

pKd	Binder
4.16	RFQQRMQTHV [KIRREL1, Q96J84]
4.13	REEPDHSTEV [CCRL2, O00421]

Each binder was assayed against T6, LRRC7, Q96NW7 (assay: holdup assay). Details: plain residues with an end cap or a label only (N-terminal biotin on a linker: ado-ado).
Set-up: key: below the threshold = too weak to quantify, mostly under pKd 3.1 to 4

pKd	Binder
below the threshold	RFQQRMQTHV [KIRREL1, Q96J84]
below the threshold	REEPDHSTEV [CCRL2, O00421]

These binders were tested against FRMPD2_3, Q68DX3 (assay: holdup assay). Details: plain residues with an end cap or a label only (N-terminal biotin on a linker: ado-ado).
Set-up: key: below the threshold = too weak to quantify, mostly under pKd 3.1 to 4

Sequence of FRMPD2_3, Q68DX3 (Q68DX3 1073-1166): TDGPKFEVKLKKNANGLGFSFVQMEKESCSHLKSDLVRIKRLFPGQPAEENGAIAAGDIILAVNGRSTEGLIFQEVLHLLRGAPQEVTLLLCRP

pKd	Binder
below the threshold	RFQQRMQTHV [KIRREL1, Q96J84]
below the threshold	REEPDHSTEV [CCRL2, O00421]

What follows are binders tested against T7, MPDZ_12, O75970 (assay: holdup assay). Details: plain residues with an end cap or a label only (N-terminal biotin on a linker: ado-ado).
Set-up: key: below the threshold = too weak to quantify, mostly under pKd 3.1 to 4

pKd	Binder
below the threshold	RFQQRMQTHV [KIRREL1, Q96J84]
below the threshold	REEPDHSTEV [CCRL2, O00421]

These binders were tested against TJP2_1, Q9UDY2 (assay: holdup assay). Details: plain residues with an end cap or a label only (N-terminal biotin on a linker: ado-ado).
Set-up: key: below the threshold = too weak to quantify, mostly under pKd 3.1 to 4

Sequence of TJP2_1, Q9UDY2 (Q9UDY2 24-128): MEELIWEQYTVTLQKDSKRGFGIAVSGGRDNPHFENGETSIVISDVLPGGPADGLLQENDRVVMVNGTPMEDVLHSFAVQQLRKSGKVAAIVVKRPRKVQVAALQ

pKd	Binder
4.82	RFQQRMQTHV [KIRREL1, Q96J84]
below the threshold	REEPDHSTEV [CCRL2, O00421]

Each binder was assayed against LNX1_1, Q8TBB1 (assay: holdup assay). Details: plain residues with an end cap or a label only (N-terminal biotin on a linker: ado-ado).
Set-up: key: below the threshold = too weak to quantify, mostly under pKd 3.1 to 4

Sequence of LNX1_1, Q8TBB1 (Q8TBB1 261-371): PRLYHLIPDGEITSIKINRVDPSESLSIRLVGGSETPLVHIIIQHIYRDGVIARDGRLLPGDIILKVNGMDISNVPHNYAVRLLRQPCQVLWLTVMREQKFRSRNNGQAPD

pKd	Binder
below the threshold	RFQQRMQTHV [KIRREL1, Q96J84]
4.09	REEPDHSTEV [CCRL2, O00421]

These binders were tested against PICK1, Q9NRD5 (assay: holdup assay). Details: plain residues with an end cap or a label only (N-terminal biotin on a linker: ado-ado).
Set-up: key: below the threshold = too weak to quantify, mostly under pKd 3.1 to 4

Sequence of PICK1, Q9NRD5 (Q9NRD5 17-115): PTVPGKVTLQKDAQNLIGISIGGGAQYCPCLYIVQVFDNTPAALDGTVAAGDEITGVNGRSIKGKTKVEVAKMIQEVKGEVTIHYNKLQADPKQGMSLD

pKd	Binder
below the threshold	RFQQRMQTHV [KIRREL1, Q96J84]
below the threshold	REEPDHSTEV [CCRL2, O00421]

What follows are binders tested against HTRA2, O43464 (assay: holdup assay). Details: plain residues with an end cap or a label only (N-terminal biotin on a linker: ado-ado).
Set-up: key: below the threshold = too weak to quantify, mostly under pKd 3.1 to 4

Sequence of HTRA2, O43464 (O43464 355-458): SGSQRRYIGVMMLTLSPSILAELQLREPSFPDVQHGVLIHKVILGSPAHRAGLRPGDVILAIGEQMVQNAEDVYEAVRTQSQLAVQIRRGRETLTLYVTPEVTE

pKd	Binder
below the threshold	RFQQRMQTHV [KIRREL1, Q96J84]
3.54	REEPDHSTEV [CCRL2, O00421]

Each binder was assayed against T8, LIN7C, Q9NUP9 (assay: holdup assay). Details: plain residues with an end cap or a label only (N-terminal biotin on a linker: ado-ado).
Set-up: key: below the threshold = too weak to quantify, mostly under pKd 3.1 to 4

pKd	Binder
3.69	RFQQRMQTHV [KIRREL1, Q96J84]
below the threshold	REEPDHSTEV [CCRL2, O00421]

What follows are binders tested against T9, RHPN1, Q8TCX5 (assay: holdup assay). Details: plain residues with an end cap or a label only (N-terminal biotin on a linker: ado-ado).
Set-up: key: below the threshold = too weak to quantify, mostly under pKd 3.1 to 4

pKd	Binder
3.91	RFQQRMQTHV [KIRREL1, Q96J84]
3.83	REEPDHSTEV [CCRL2, O00421]

From publication PMC9482650, “Quantitative fragmentomics allow affinity mapping of interactomes” (Nature Communications, 2022)
